# Where a chain is given by its changes, count along the chain named.
# T1: A33 antigen (full-length human A33) (human, UniProt Q99795 22-319)
# T1 construct: Class I cell membrane protein of the Ig superfamily; also called GPA33; human A33 antigen
# T1 sequence: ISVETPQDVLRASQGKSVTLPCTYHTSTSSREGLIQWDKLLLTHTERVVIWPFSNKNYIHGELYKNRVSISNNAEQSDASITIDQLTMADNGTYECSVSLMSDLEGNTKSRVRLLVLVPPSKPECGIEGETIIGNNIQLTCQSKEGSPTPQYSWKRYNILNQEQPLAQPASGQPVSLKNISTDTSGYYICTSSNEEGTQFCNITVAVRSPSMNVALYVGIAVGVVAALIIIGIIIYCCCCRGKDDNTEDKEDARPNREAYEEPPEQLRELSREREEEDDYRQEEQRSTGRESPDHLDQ
# B1: rec263 (antibody, V domains shown)
# VH: EVQLLESGGGLVQPGGSLRLSCAASGFTFSSYAMSWIRQAPGKGLEWVSAISASGGSTYYADSVKGRFTISRDNSKNTLYLQMNSLRAEDTAVYYCAKDRIVGATNYYYGMDVWGQGTTVTVSS
# VL: DIQMTQSPPSVSASVGDRVTITCRASQGISSWLAWYQHKPGKAPKLLIYGASSLQSGVPSRFSGSGSGTDFTLTISSLQPEDFATYYCQQANSFPITFGQGTRLEIK
# notes: also called rec263 antibody; rec263A1
# B2: 263A17 (antibody, V domains shown)
# VH: B1 VH
# VL: B1 VL
# notes: Human IgG1 kappa antibody purified from the hybridoma; also called 263A17 antibody
# B3: 125M10AA (antibody, human IgG1, kappa, V domains shown)
# VH: QLQVQESGPGLVKPSETLSLICTVSGGSIRTSGYYWGWFRQPPGKGLEWIGTSHNSGSTYYNPSLKSRVTISVDTSKNQFSLKLNSVTAADTAVYYCARQGYDFKVNIDVWGQGTTVTVSS
# VL: EIVLTQSPATLSLSPGERATLSCRASQSVSSYLAWYQQKPGQAPRLLIYDASNRATGIPARFSGSGSGTDFTLTISSLEPEDFAVYYCQQRSNWPLTFGGGTKVEIKR
# notes: Human IgG1 kappa antibody purified from hybridoma 125M10AA (FERM BP-10107); also called 125M10AA antibody
# B4: 125M165DAAA (antibody, V domains shown)
# VH: QVQLVESGGGVVQPGRSLRLSCAASGFTFSYYGMHWVRQAPGKGLEWVAVIWYDGSNKYYADSVKGRFTISRDNSKKTLYLQMNSLRAEDTAVYYCARDGHSSGWGDFQHWGQGTLVTVSS
# VL: EIVLTQSPATLSLSPGERATLSCRASQSVSSSLAWYQQKPGQAPRLLIYDASNRATGIPARFSGSGSGTDFTLTISSLEPEDFAIYYCQQRSNWPPTFGQGTKVEIK
# notes: Human IgG1 kappa antibody purified from the hybridoma (FERM BP-10106); also called 125M165DAAA antibody
# B5: 125M96ABA (antibody, V domains shown)
# VH: QLQLQESGPGLVKPSETLSLTCTVSGGSISTSSYYWGWIRQPPGKGLEWIGTIYYNGSTYYSPSLKSRVSISVDTSKNQFSLKLSSVTAADTSVYYCARQGYDIKINIDVWGQGTTVTVSS
# VL: B4 VL with S32Y, D50V, I85V, P96L, Q100G
# notes: Human IgG1 kappa antibody purified from the hybridoma (FERM BP-10108); also called 125M96ABA antibody
# B6: 125N26F6AA (antibody, human IgG1, kappa, V domains shown)
# VH: QVQLVESGGGVVQPGRSLRLSCAASGFTFSHYGMHWVRQAPGKGLEWVALIWYDGSNKYYADSVKGRFTISRDNSKNTLYLQMNSLRAEDTAVYYCARDPLAAGTSYFDYWGQGTLVTVSS
# VL: EIVLTQSPDFQSVTPKEKVTITCRASQSIGSSLHWYQQKPDQSPKLLIKYASQSFSGVPSRFSGSGSGTDFTLTINSLEAEDAAAYYCHQSSSLPFTFGPGTKVDIKR
# notes: Human IgG1 kappa antibody purified from hybridoma 125N26F6AA (FERM BP-10109); also called 125N26F6AA antibody
# B7: 125Q54AAAA (antibody, V domains shown)
# VH: EVQLLESGGGLVQPGGSLRLSCAASGFTFSSYAMSWVRQAPGKGLEWVSDISGSGGYTYYADSVKGRFTISRDNSKNTLYLQMNSLRAEDTAVYYCAKTGDGSGSYSPDSWGQGTLVTVSS
# VL: DIQMTQSPSSLSASVGDRVTITCRASQGISRWLAWYQQKPEKAPKSLIYAASSLQSGVPSRFSGSGSGTDFTLTISSLQPEDFATYYCQQYNSYPYTFGQGTKLEIK
# notes: Human IgG1 kappa antibody purified from the hybridoma (FERM BP-10105); also called 125Q54AAAA antibody
# B8: 125Q47BA (antibody, V domains shown)
# VH: B7 VH with S35T, D101A
# VL: B7 VL with R31S
# notes: Human IgG1 kappa antibody purified from the hybridoma (FERM BP-10104); also called 125Q47BA antibody
# B9: 125R5AAAA (antibody, V domains shown)
# VH: B7 VH with N77K, S110Y
# VL: B7 VL with R31S
# notes: Human IgG1 kappa antibody purified from the hybridoma (FERM BP-10103); also called 125R5AAAA antibody
# Target: T1, A33 antigen (full-length human A33)
# Assay: FCM on COLO205 cells; grade = ng/ml to reach half MFI 45 (+++ 10<=x<100, ++ 100<=x<1000, + 1000<=x<10000)
row,Binder,antibody concentration required to reach half value of the mean fluorescence intensity [ng/mL]
1,B1,100 to 1000

# Target: T1, A33 antigen (full-length human A33)
# Assay: FCM on LS174T cells; grade = ng/ml to reach half MFI 100 (+++ 10<=x<100, ++ 100<=x<1000, + 1000<=x<10000)
row,Binder,antibody concentration required to reach half value of the mean fluorescence intensity [ng/mL]
1,B1,100 to 1000

# Target: T1, A33 antigen (full-length human A33)
# Assay: FCM on LS174T cells; grade = ng/ml to reach half MFI 125 (+++ 10<=x<100, ++ 100<=x<1000, + 1000<=x<10000)
# Source text: (§1) The reactivity of each type of purified monoclonal antibody obtained in Example 8 to A33-antigen-expressing human colorectal cancer cell line COLO205 cells, LoVo cells (ATCC No. CCL-229), LS174T cells (ATCC No. CL-188), and NCI-H508 cells (ATCC No. CCL-253) was examined by FCM. Human colorectal cancer cell line HT-29 cells (ATCC No. HTB-38) expressing no A33 antigen were also examined as negative control cells. Each cell line was suspended at a concentration of 2×10⁶/ml in a PBS Staining Buffer (SB) containing 0.1% NaN₃ and 2% FCS. The cell suspension (50 μl/well) was dispensed in a 96-well round bottom plate (produced by Becton, Dickinson and Company). 50 μl of each type of purified monoclonal antibody (adjusted using SB at a concentration of 2000, 400, 80, or 16 ng/ml) was added, and then incubation was performed on ice for 30 minutes. A negative control was prepared depending on each subclass. Specifically, a human IgG1 antibody (produced by Sigma) was adjusted using SB at a concentration of 2000, 400, 80, or 16 ng/ml. 50 μl of the solution was added, followed by 30 minutes of incubation on ice. The resultant was washed twice with SB and then 50 μl of an FITC fluorescence-labeled goat anti-human IgG F(ab′)₂ antibody (produced by Southern Biotech), followed by 30 minutes of incubation on ice. The resultant was washed once with SB and then the resultant was suspended in 300 μl of a FACS buffer. The mean fluorescence intensity of each cell line was measured by FACS (FACScan produced by Becton, Dickinson and Company).
# (§2) For COLO205 cells, the half value of the mean fluorescence intensity was determined to be 90. For LoVo cells, the half value of the mean fluorescence intensity was determined to be 25. […] When an antibody concentration required to reach such value was 10<=x<100 ng/ml, the reactivity was represented by +++, when the same was 100<=x<1000 ng/ml, the reactivity was represented by ++, and when the same was 1000<=x<10000 ng/ml, the reactivity was represented by +. When no binding was observed, the reactivity was represented by −.
row,Binder,antibody concentration required to reach half value of mean fluorescence intensity [ng/mL]
1,B2,100 to 1000
2,B3,10 to 100
3,B4,100 to 1000
4,B5,100 to 1000
5,B6,100 to 1000
6,B7,100 to 1000
7,B8,100 to 1000
8,B9,100 to 1000

# Target: T1, A33 antigen (full-length human A33)
# Assay: FCM competition on COLO205 cells; antibody 1 µg/ml, competitor mouse anti-A33 antibody 100 µg/ml
# Experimental: (§3) Whether or not each type of purified monoclonal antibody obtained in Example 8 recognizes an epitope similar to that of the mouse anti-A33 antibody was examined by a competition test using FCM. The COLO205 cell line was suspended at a concentration of 2×10⁶/ml in a PBS Staining Buffer (SB) containing 0.1% NaN₃ and 2% FCS. The cell suspension (50 μl/well) was dispensed in a 96-well round bottom plate (produced by Becton, Dickinson and Company). The purified mouse anti-A33 antibody prepared in Example 1 was not added or added at a concentration of 100 μg/ml to the wells containing each type of purified monoclonal antibody (1 μg/ml and 50 μl), followed by 30 minutes of incubation on ice. A mouse negative control (containing no purified anti-A33 antibody added thereto) was prepared as follows. A human IgG1 antibody (produced by Sigma) was adjusted at a concentration of 1 μg/ml with SB and then 50 μl of the solution was added, followed by 30 minutes of incubation on ice. The resultant was washed twice with SB and then 50 μl of FITC fluorescence-labeled goat anti-human IgG F(ab′)₂ antibody (produced by IBL) was added, followed by 30 minutes of incubation on ice. The resultant was washed once with SB and then the resultant was suspended in 300 μl of a FACS buffer. The mean fluorescence intensity of each cell line was measured by FACS (FACScan produced by Becton, Dickinson and Company). The inhibition (%) between each type of purified monoclonal antibody and the mouse A33 antibody was calculated by the following formula: […]
row,Binder,Inhibition (%)
1,B2,3.7
2,B3,5
3,B4,96
4,B5,22.8
5,B6,98
6,B7,46.5
7,B8,64.1
8,B9,63.9

# Target: T1, A33 antigen (full-length human A33)
# Assay: FCM on NCI-H508 cells; grade = ng/ml to reach half MFI 125 (+++ 10<=x<100, ++ 100<=x<1000, + 1000<=x<10000)
# Source text: as §1, §2
row,Binder,antibody concentration required to reach half value of mean fluorescence intensity [ng/mL]
1,B2,100 to 1000
2,B3,10 to 100
3,B4,100 to 1000
4,B5,100 to 1000
5,B6,100 to 1000
6,B7,100 to 1000
7,B8,100 to 1000
8,B9,100 to 1000

# Target: T1, A33 antigen (full-length human A33)
# Assay: FCM on COLO205 cells; grade = ng/ml to reach half MFI 90 (+++ 10<=x<100, ++ 100<=x<1000, + 1000<=x<10000)
# Source text: as §1, §2
row,Binder,antibody concentration required to reach half value of mean fluorescence intensity [ng/mL]
1,B2,100 to 1000
2,B3,10 to 100
3,B4,10 to 100
4,B5,10 to 100
5,B6,10 to 100
6,B7,10 to 100
7,B8,10 to 100
8,B9,10 to 100

# Target: T1, A33 antigen (full-length human A33)
# Assay: FCM competition on COLO205 cells as in Example 10; competitor mouse anti-A33 antibody
# Experimental: as §3
row,Binder,Inhibition (%)
1,B1,15.3

# Target: T1, A33 antigen (full-length human A33)
# Assay: FCM on NCI-H508 cells; grade = ng/ml to reach half MFI 175 (+++ 10<=x<100, ++ 100<=x<1000, + 1000<=x<10000)
row,Binder,antibody concentration required to reach half value of the mean fluorescence intensity [ng/mL]
1,B1,100 to 1000

# Target: T1, A33 antigen (full-length human A33)
# Assay: FCM on LoVo cells; grade = ng/ml to reach half MFI 25 (+++ 10<=x<100, ++ 100<=x<1000, + 1000<=x<10000)
# Source text: as §1, §2
row,Binder,antibody concentration required to reach half value of mean fluorescence intensity [ng/mL]
1,B2,100 to 1000
2,B3,10 to 100
3,B4,10 to 100
4,B5,10 to 100
5,B6,10 to 100
6,B7,10 to 100
7,B8,10 to 100
8,B9,10 to 100

# Reference: patent US20080200654A1 (KIRIN PHARMA, published 2008)
